Assay results: publication PMC6079010

Biological target: catalytic domain of KAT2A (as crystallised, apo and with succinyl-CoA)
Assay: crystal structure; apo (space group P4_(1)2_(1)2) and succinyl-CoA-complexed (P2_(1)3) crystals of the catalytic domain, grown at pH 4.6; octahedral assembly seen in both

stoichiometry N: 24
Substance: catalytic domain of KAT2A (as crystallised, apo and with succinyl-CoA) (domain or fragment)
